This is an account of results in the supplement of paper PMC9112550, “Optimization of the antimicrobial peptide Bac7 by deep mutational scanning” (BMC Biology, 2022).
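Further: peptides expressed intracellularly from a pBAD plasmid library in pooled LB shake-flask culture, induced with 0.3% L-arabinose, DNA abundance read by NGS, three biological replicates, DESeq2 with apeglm shrinkage.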

The series relates to Escherichia coli TOP10. Briefly: shrunken log2 fold change of peptide-encoding DNA abundance (4.5 h post-induction vs induction); higher = less antimicrobial activity (less host growth inhibition). The note with it: time post-induction: 4.5 h; library: site-saturation at positions 5, 18, 19, 20.
For RRIRTRPPRLPRPRPRPLFFPRP, the “shrunken log2 fold change” value was -0.263. With RRIRDRPPRLPRPRPRPVESPRP, the “shrunken log2 fold change” value is -0.373. The same measure for RRIRDRPPRLPRPRPRPYAHPRP: -0.31. As for RRIRIRPPRLPRPRPRPDIHPRP, the “shrunken log2 fold change” value was -0.587. The same measure for RRIRLRPPRLPRPRPRPCWLPRP: 0.0345; for RRIRARPPRLPRPRPRPDQQPRP: -0.0359; for RRIRHRPPRLPRPRPRPQLWPRP: 0.0534. The same measure for RRIRQRPPRLPRPRPRPTCNPRP: -0.348. With RRIRARPPRLPRPRPRPHEGPRP the figure was 0.148. Turning to RRIRNRPPRLPRPRPRPHRIPRP, the “shrunken log2 fold change” value is -0.0314. The same measure for RRIRRRPPRLPRPRPRPHWWPRP: 0.325; for RRIRYRPPRLPRPRPRPCYGPRP: -0.211. The same measure for RRIRPRPPRLPRPRPRPAMFPRP: 0.0516; for RRIRHRPPRLPRPRPRPQTVPRP: -0.495. The same measure for RRIRQRPPRLPRPRPRPTYLPRP: -0.562; for RRIRERPPRLPRPRPRPTWDPRP: -0.327; for RRIRVRPPRLPRPRPRPIRIPRP: -0.0273. Regarding RRIRMRPPRLPRPRPRPHHVPRP, the “shrunken log2 fold change” value was -0.143. The same measure for RRIRDRPPRLPRPRPRPMHWPRP: 0.591; for RRIRTRPPRLPRPRPRPIWVPRP: -0.0869. The same measure for RRIRMRPPRLPRPRPRPMCDPRP: 0.709. With RRIRLRPPRLPRPRPRPCKLPRP the figure was -0.114; with RRIRIRPPRLPRPRPRPNDGPRP, -0.483.

Regarding RRIRDRPPRLPRPRPRPINEPRP, the “shrunken log2 fold change” value is -0.144.

As to RRIRTRPPRLPRPRPRPWEGPRP, the “shrunken log2 fold change” value stood at 0.0154. The same measure for RRIRYRPPRLPRPRPRPVRQPRP: 0.132; for RRIRLRPPRLPRPRPRPRGRPRP: 0.149; for RRIRSRPPRLPRPRPRPQCCPRP: -0.312. With RRIRARPPRLPRPRPRPPYYPRP the figure was 0.0635. With RRIRERPPRLPRPRPRPKMKPRP the figure was -0.226. With RRIRDRPPRLPRPRPRPHHLPRP, the “shrunken log2 fold change” value was -0.0476. In the case of RRIRARPPRLPRPRPRPSFRPRP, the “shrunken log2 fold change” value was -0.262. With RRIRFRPPRLPRPRPRPIFLPRP the figure was -0.196.

Turning to RRIRERPPRLPRPRPRPQMQPRP, the “shrunken log2 fold change” value was -0.173. The same measure for RRIRWRPPRLPRPRPRPWQRPRP: 0.551; for RRIRQRPPRLPRPRPRPLDVPRP: -0.0496; for RRIRLRPPRLPRPRPRPEGRPRP: 1.11.

Turning to RRIRLRPPRLPRPRPRPYFAPRP, the “shrunken log2 fold change” value is -0.233. On to RRIRQRPPRLPRPRPRPKNDPRP, for which the “shrunken log2 fold change” value was -0.379. With RRIRQRPPRLPRPRPRPHQQPRP the figure was -0.101. Take RRIRCRPPRLPRPRPRPECIPRP: the “shrunken log2 fold change” value was found to be 0.0623. The same measure for RRIRIRPPRLPRPRPRPSKDPRP: -1.02; for RRIRFRPPRLPRPRPRPPCDPRP: 0.0212; for RRIRHRPPRLPRPRPRPLYGPRP: -0.214. The same measure for RRIRMRPPRLPRPRPRPQASPRP: 0.309. The same measure for RRIRYRPPRLPRPRPRPSHMPRP: -0.0573; for RRIRGRPPRLPRPRPRPHFLPRP: 1.03; for RRIRMRPPRLPRPRPRPMDKPRP: 0.3. On to RRIRFRPPRLPRPRPRPTCPPRP, for which the “shrunken log2 fold change” value is 0.174. As to RRIRQRPPRLPRPRPRPNKMPRP, the “shrunken log2 fold change” value was -0.0321. As to RRIRIRPPRLPRPRPRPCYTPRP, the “shrunken log2 fold change” value was -0.128. With RRIRPRPPRLPRPRPRPGRLPRP the figure was -0.0937; with RRIRIRPPRLPRPRPRPEDHPRP, -0.185; with RRIRHRPPRLPRPRPRPWLQPRP, 0.0358.
